Molecular target: adaptor protein 1A complex (AP-1A; γ/β1/μ1A/σ1), endogenous, mouse (mouse (endogenous in pituitary and in AtT-20)) (UniProt P22892)
Test: co-IP

Sequence of UniProt P22892 (P22892 whole entry, chain 1 of 4): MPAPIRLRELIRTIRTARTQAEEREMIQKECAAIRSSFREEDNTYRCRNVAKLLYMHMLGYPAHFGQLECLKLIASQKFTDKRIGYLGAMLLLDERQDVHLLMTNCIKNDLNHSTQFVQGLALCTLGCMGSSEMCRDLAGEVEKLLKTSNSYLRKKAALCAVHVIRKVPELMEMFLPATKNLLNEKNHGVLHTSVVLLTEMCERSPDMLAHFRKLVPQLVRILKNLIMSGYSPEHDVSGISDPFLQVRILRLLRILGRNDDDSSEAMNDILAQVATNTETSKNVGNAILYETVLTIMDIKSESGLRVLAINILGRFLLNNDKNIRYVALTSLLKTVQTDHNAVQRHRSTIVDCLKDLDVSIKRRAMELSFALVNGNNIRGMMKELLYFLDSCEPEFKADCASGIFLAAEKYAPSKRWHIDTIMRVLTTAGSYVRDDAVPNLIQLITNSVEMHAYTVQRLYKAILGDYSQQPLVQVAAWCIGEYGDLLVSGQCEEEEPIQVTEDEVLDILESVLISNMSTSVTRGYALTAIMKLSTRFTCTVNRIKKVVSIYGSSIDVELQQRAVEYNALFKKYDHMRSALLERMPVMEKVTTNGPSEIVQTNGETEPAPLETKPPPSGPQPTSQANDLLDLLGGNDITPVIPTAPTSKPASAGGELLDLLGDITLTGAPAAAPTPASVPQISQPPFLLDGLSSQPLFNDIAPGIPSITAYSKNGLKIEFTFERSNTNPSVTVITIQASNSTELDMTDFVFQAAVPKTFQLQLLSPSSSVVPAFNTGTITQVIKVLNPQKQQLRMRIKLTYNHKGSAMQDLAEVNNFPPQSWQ
Sequence of UniProt P22892 (O35643 whole entry, chain 2 of 4, further chain): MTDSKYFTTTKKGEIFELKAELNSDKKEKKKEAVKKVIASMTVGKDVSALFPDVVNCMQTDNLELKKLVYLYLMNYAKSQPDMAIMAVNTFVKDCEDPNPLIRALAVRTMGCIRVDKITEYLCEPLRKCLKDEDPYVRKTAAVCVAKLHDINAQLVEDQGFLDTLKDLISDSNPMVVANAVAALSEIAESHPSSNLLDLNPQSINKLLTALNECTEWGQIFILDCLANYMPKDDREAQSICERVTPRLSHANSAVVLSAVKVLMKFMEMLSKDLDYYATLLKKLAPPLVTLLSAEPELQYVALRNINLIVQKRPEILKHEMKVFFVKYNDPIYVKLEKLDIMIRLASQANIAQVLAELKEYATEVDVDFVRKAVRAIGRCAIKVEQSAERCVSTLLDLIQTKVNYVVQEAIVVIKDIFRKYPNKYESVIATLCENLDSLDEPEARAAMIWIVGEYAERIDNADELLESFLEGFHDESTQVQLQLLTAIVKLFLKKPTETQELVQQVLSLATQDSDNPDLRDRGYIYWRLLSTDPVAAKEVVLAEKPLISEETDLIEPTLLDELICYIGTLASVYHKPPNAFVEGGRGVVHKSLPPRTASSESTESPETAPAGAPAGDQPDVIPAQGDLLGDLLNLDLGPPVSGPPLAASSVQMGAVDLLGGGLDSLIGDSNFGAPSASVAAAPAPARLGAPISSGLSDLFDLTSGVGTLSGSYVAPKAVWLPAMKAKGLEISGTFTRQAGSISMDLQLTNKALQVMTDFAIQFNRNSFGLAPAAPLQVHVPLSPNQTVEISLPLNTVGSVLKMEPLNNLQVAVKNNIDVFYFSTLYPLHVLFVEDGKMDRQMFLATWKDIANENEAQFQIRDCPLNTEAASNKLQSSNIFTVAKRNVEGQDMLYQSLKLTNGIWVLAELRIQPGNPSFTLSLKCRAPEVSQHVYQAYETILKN
Sequence of UniProt P22892 (P35585 whole entry, chain 3 of 4, further chain): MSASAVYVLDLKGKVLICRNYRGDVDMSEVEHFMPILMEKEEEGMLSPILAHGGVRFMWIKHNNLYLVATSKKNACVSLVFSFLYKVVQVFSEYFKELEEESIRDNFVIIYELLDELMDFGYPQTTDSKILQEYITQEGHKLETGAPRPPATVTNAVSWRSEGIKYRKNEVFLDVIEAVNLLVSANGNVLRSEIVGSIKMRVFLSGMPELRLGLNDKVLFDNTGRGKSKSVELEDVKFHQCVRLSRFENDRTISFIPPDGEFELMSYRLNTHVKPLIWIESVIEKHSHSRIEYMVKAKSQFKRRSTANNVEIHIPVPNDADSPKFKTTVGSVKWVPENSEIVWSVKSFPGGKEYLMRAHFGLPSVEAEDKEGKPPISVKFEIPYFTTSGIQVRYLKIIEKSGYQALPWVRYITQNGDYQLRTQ
Sequence of UniProt P22892 (P61967 whole entry, chain 4 of 4, further chain): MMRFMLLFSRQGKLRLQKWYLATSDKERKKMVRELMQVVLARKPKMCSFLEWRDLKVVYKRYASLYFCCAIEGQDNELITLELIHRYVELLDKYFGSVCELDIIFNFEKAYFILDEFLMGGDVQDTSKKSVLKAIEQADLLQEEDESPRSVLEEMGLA

Binder	percent of PAM-1 co-immunoprecipitated [%]
PAM-1, stably expressed in AtT-20 cells (natural protein) FKETTRSFSNECLGTIGPVTPLDASDFALDIRMPGVTPKESDTYFCMSMRLPVDEEAFVIDFKPRASMDTVHHMLLFGCNMPSSTGSYWFCDEGTCTDKANILYAWARNAPPTRLPKGVGFRVGGETGSKYFVLQVHYGDISAFRDNHKDCSGVSVHLTRVPQPLIAGMYLMMSVDTVIPPGEKVVNADISCQYKMYPMHVFAYRVHTHHLGKVVSGYRVRNGQWTLIGRQNPQLPQAFYPVEHPVDVTFGDILAARCVFTGEGRTEATHIGGTSSDEMCNLYIMYYMEAKYALSFMTCTKNVAPDMFRTIPAEANIPIPVKPDMVMMHGHHKEAENKEKSALMQQPKQGEEEVLEQGDFYSLLSKLLGEREDVHVHKYNPTEKTESGSDLVAEIANVVQKKDLGRSDAREGAEHEEWGNAILVRDRIHRFHQLESTLRPAESRAFSFQQPGEGPWEPEPSGDFHVEEELDWPGVYLLPGQVSGVALDSKNNLVIFHRGDHVWDGNSFDSKFVYQQRGLGPIEEDTILVIDPNNAEILQSSGKNLFYLPHGLSIDTDGNYWVTDVALHQVFKLDPHSKEGPLLILGRSMQPGSDQNHFCQPTDVAVEPSTGAVFVSDGYCNSRIVQFSPSGKFVTQWGEESSGSSPRPGQFSVPHSLALVPHLDQLCVADRENGRIQCFKTDTKEFVREIKHASFGRNVFAISYIPGFLFAVNGKPYFGDQEPVQGFVMNFSSGEIIDVFKPVRKHFDMPHDIVASEDGTVYIGDAHTNTVWKFTLTEKMEHRSVKKAGIEVQEIKEAEAVVEPKVENKPTSSELQKMQEKQKLSTEPGSGVSVVLITTLLVIPVLVLLAIVMFIRWKKSRAFGDHDRKLESSSGRVLGRFRGKGSGGLNLGNFFASRKGYSRKGFDRVSTEGSDQEKDEDDGTESEEEYSAPLPKPAPSS	2
peptidylglycine α-amidating monooxygenase-1 (PAM-1), endogenous in mouse pituitary (natural protein) FKETTRSFSNECLGTTRPITPIDSSDFTLDIRMPGVTPKESDTYFCMSMRLPVDEEAFVIDFKPRASMDTVHHMLLFGCNMPSSTGSYWFCDEGTCTDKANILYAWARNAPPTRLPKGVGFRVGGETGSKYFVLQVHYGDISAFRDNHKDCSGVSLHLTRVPQPLIAGMYLMMSVNTVIPPGEKVVNSDISCHYKMYPMHVFAYRVHTHHLGKVVSGYRVRNGQWTLIGRQSPQLPQAFYPVEHPVDVAFGDILAARCVFTGEGRTEATHIGGTSSDEMCNLYIMYYMEAKHAVSFMTCTQNVAPDMFRTIPEEANIPIPVKSDMVMIHGHHKETENKEKSALIQQPKQGEEEAFEQGDFYSLLSKLLGEREDVVHVHKYNPTEKTESGSDLVAEIANVVQKKDLGRSDAREGAEHEEGGNAILVRDRIHKFHRLESTLRPAESRALSFQQPGEGPWEPELAGDFHVEEALEWPGVYLLPGQVSGVALDSKNNLVIFHRGDHVWDGNSFDSKFVYQQRGLGPIEEDTILVIDPNKAEILQSSGKNLFYLPHGLSIDTDGNYWVTDVALHQVFKLEPRSKEGPLLVLGRSMQPGSDQNHFCQPTDVAVEPSTGAVFVSDGYCNSRIVQFSPSGKFITQWGEESSGSSPKPGQFSVPHSLALVPHLNQLCVADRENGRIQCFKTDTKEFVREIKHASFGRNVFAISYIPGFLFAVNGKPYFGDQEPVQGFVMNFSSGEIIDVFKPVRKHFDMPHDIVASEDGTVYIGDAHTNTVWKFTLTESRLEVEHRSVKKAGIEVPEIKEAEAVVEPKVKNKPTSSELQKMQEKKKLIKDPGSGVPVVLITTLLVIPVVVLLAIAMFIRWKKSRAFGDHDRKLESSSGRVLGRLRGKGSSGLNLGNFFASRKGYSRKGFDRVSTEGSDQEKDEDDGSESEEEYSAPLPTPAPSS	3

Reference: publication PMC4167924
